Our source for the stoichiometry N values is PMC3958349.

Assay [1] addresses eGFP-GR (wild-type mouse glucocorticoid receptor with eGFP fused to its N-terminal end) (mouse) (UniProt P06537). Kind of assay: number and brightness (N&B) analysis; living BHK cells transiently transfected with pEGFP-GR or pEGFP-GR^A465T; 10 µM 21OH-6,19OP; nuclear brightness ε.
Assay [2] shares this target. Kind of assay: number and brightness (N&B) analysis; living GR-null MEF cell lines stably expressing eGFP-GR or its mutants at endogenous levels; 100 nM Dex or 100 nM Cort; nuclear brightness ε.
Assay [3] shares this target. Kind of assay: number and brightness (N&B) analysis; living BHK cells transiently transfected with pEGFP-GR or its mutants; 100 nM (0.1 µM) Dex or 100 nM Cort for at least 1 h; nuclear brightness ε relative to vehicle; ligand washout also tested (Cort withdrawal reduced the dimers, Dex washout did not).
For assay [4], the target named is eGFP-GR^A465T (mouse) (UniProt P06537). Nature of the assay: number and brightness (N&B) analysis; living GR-null MEF cell lines stably expressing eGFP-GR or its mutants at endogenous levels; 100 nM Dex or 100 nM Cort; nuclear brightness ε.
Assay [5] has the same target. Kind of assay: number and brightness (N&B) analysis; living 3617 cells (tetracycline to inhibit the stable GFP-GR) transiently transfected with pEGFP-GR or its mutants; 100 nM Dex or 100 nM Cort for at least 30 min; nuclear brightness ε.
In assay [6] the target is mCherry-GR (wild type) (UniProt P06537). Nature of the assay: number and brightness (N&B) analysis; living 3617 cells transiently expressing mCherry, mCherryGRwt, GFP and/or GFP-p65; 300 nM Cort and/or 10 ng/ml TNF-α; nuclear brightness ε in the green and red channels.

As to “eGFP-GR (wild-type mouse glucocorticoid receptor with eGFP fused to its N-terminal end) (from UniProt P06537 1-792)”, the stoichiometry N in assay [1], in assay [2] and in assay [3] was 2 each time.
Consider “eGFP-GR^A465T (from UniProt P06537 1-792) (receptor)”, for which the stoichiometry N in assay [4] and in assay [5] was 2 throughout.
Turning to “mCherry-GR (wild type) (from UniProt P06537 1-792) (receptor)”, the stoichiometry N in assay [6] is 2.
